Data set [1] concerns the target T1, recombinant estrogen receptor alpha (rERα) (UniProt P03372 1-595). As to the kind of experiment: EMSA, supershift; HESC nuclear extract; 25 mM Tris-HCl pH 8.0, 50 mM KCl, 6.25 mM MgCl2, 10% glycerol, 0.5 mM DTT; 5 µg HESC nuclear extract + 170 nM rERα; 5% acrylamide gel in TBE; temperature not stated. Conditions: protein: commercial; chain copies: 2; label: 32P 5' end; blunt. Background: In EMSA bound probe runs differently from free probe, usually more slowly.

In data set [2] the target is T1, recombinant estrogen receptor alpha …. Description: EMSA, supershift; HESC nuclear extract; weaker than consensus ERE, stronger than PCNA-ERE2; 25 mM Tris-HCl pH 8.0, 50 mM KCl, 6.25 mM MgCl2, 10% glycerol, 0.5 mM DTT; 5 µg HESC nuclear extract + 170 nM rERα; 5% acrylamide gel in TBE; temperature not stated. Conditions: protein: commercial; chain copies: 2; blunt.

T1 sequence (P03372 whole entry): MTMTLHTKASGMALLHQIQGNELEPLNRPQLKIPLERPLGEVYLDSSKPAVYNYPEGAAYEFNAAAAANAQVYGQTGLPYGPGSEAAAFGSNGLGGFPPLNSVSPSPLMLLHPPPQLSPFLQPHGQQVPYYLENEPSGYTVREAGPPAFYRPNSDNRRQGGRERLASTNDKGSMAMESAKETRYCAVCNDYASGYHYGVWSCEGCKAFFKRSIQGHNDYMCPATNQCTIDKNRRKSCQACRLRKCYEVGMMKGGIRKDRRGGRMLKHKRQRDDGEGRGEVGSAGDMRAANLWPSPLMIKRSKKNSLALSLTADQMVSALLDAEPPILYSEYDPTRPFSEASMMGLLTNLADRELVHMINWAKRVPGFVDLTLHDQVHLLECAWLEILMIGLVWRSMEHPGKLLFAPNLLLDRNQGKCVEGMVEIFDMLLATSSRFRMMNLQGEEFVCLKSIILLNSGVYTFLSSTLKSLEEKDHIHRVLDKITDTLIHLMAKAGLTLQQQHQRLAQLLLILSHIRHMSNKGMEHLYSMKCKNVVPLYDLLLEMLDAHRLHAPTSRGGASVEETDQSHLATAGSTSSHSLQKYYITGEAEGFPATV

B1: consensus ERE (dsDNA)
DNA 1: GGATCTAGGTCACTGTGACCCCGGATC
DNA 2: GATCCGGGGTCACAGTGACCTAGATCC
In the case of B1, in data set [1], the binding result is “binds”.

B2: PCNA-ERE1 (dsDNA)
DNA 1: GGGAGTTTGAGGCCAGCCTGACCAACATTG
DNA 2: CAATGTTGGTCAGGCTGGCCTCAAACTCCC
With B2, the binding result in data set [2] is “binds”.

The record behind these values is paper PMC2568806, “Two Estrogen Response Element Sequences Near the PCNA Gene Are Not Responsible for Its Estrogen-Enhanced Expression in MCF7 Cells”.
